This is an account of results in patent US10350168B2, “Dermal delivery compositions comprising active agent-calcium phosphate particle complexes and methods of using the same” (Laboratory Skin Care, Inc., priority 2009, dated 2019).

This data set in a line: Lactoferrin binding to calcium phosphate particles (UV 280 nm). The format is physicochemical. To be noted: binding concentration of 2.99 mg/ml. The protocol: • Calcium phosphate particles • Lactoferrin from human milk, Sigma Aldrich, Catalog No. 0520-100MG Methods: • i. Lactoferrin solution was prepared in water at 4.98 mg/ml. • ii. 0.3 g of Calcium phosphate particles was suspended in 1.2 ml of water and mixed for 5 min. • iii. 1.8 ml of Lactoferrin solution at 4.98 mg/ml was added to achieve the final concentrations at 3.0 mg/ml, and the final volume was 3 ml. • iv. The suspension was mixed for 30 min, and centrifuged at 5000×g for 10 min in a bench top centrifuge. • v. The absorbance of supernatant was measured at 280 nm (the detection wavelength for Lactoferrin) by UV spectrophotometer. • vi. […] Lactoferrin bound was calculated by subtracting the amount of the Lactoferrin detected in the supernatant from the total initial amount in the binding suspension.

B1: Lactoferrin: Lactoferrin from human milk, Sigma Aldrich (protein, UniProt P02788 20-710, looked up)
Lactotransferrin: GRRRSVQWCAVSQPEATKCFQWQRNMRKVRGPPVSCIKRDSPIQCIQAIAENRADAVTLDGGFIYEAGLAPYKLRPVAAEVYGTERQPRTHYYAVAVVKKGGSFQLNELQGLKSCHTGLRRTAGWNVPIGTLRPFLNWTGPPEPIEAAVARFFSASCVPGADKGQFPNLCRLCAGTGENKCAFSSQEPYFSYSGAFKCLRDGAGDVAFIRESTVFEDLSDEAERDEYELLCPDNTRKPVDKFKDCHLARVPSHAVVARSVNGKEDAIWNLLRQAQEKFGKDKSPKFQLFGSPSGQKDLLFKDSAIGFSRVPPRIDSGLYLGSGYFTAIQNLRKSEEEVAARRARVVWCAVGEQELRKCNQWSGLSEGSVTCSSASTTEDCIALVLKGEADAMSLDGGYVYTAGKCGLVPVLAENYKSQQSSDPDPNCVDRPVEGYLAVAVVRRSDTSLTWNSVKGKKSCHTAVDRTAGWNIPMGLLFNQTGSCKFDEYFSQSCAPGSDPRSNLCALCIGDEQGENKCVPNSNERYYGYTGAFRCLAENAGDVAFVKDVTVLQNTDGNNNEAWAKDLKLADFALLCLDGKRKPVTEARSCHLAMAPNHAVVSRMDKVERLKQVLLHQQAKFGRNGSDCPDKFCLFQSETKNLLFNDNTECLARLHGKTTYEKYLGPQYVAGITNLKKCSTSPLLEACEFLRK
With B1, the “Lactoferrin bound to calcium phosphate particles” value stood at 29.63 mg/g.
